# Test results as given in PMC314469, “Protein Interaction Networks by Proteome Peptide Scanning” (PLoS Biology, 2004).
# T1: Myo5 SH3 (MYO5_YEAST), Q04439
# T1 chain: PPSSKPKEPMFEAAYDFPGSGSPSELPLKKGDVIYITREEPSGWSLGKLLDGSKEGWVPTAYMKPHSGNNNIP
# Molecular target: T1, Myo5 SH3 (MYO5_YEAST), Q04439
# Experiment: SPOT array
row,Binder,"normalised SPOT signal, Boehringer light units (BLU); mean over the file's lines of this peptide"
1,GESHYKPPSTPKIN [YFL034W 1020-1033],722
2,GETQWRIPYLPLDP [YNL104C 387-400],106
3,GETRWRIPYLPLDP [YOR108W 386-399],118
4,GEYDLIMPIYPYRL [YIL173W 521-534],242
5,GFDGYMQPIIPGKT [YDR390C 147-160],158
6,GFVFFIAPHLPVDL [YER003C 399-412],508
7,GLDALNIPHKPKQL [YHR033W 57-70],167
8,GLHDYTSPASPKQT [YOR267C 107-120],130
9,GLIAHQGPQFPVMG [YKL204W 458-471],238
10,GLIGMNDPPRPNVK [YGL167C 574-587],116
11,GLLLLFVPDSPYDP [YLR106C 2903-2916],21.6
12,GLLTYKGPKVPYQK [YHR028C 497-510],150
13,GLRELFLPGMPGLM [YPL249C 557-570],160
14,GLRWYRSPIYPYLY [YEL050C 102-115],468
15,GPEFWISPDTPLKF [YJL093C 632-645],87.4
16,GPIIHPGPEPPRYD [YPR030W 1104-1117],205
17,GPLLLTVPELPEAD [YLR338W 178-191],162
18,GPSQFAPPPPPPGV [YCR077C 189-202],20400
19,GWEPFSLPKDPKVV [YML018C 282-295],75.9
20,GWPVYNYPMQPTTE [YER109C 286-299],168
21,GWSTYIPPFNPLEI [YNL088W 836-849],114

row,Binder,"normalised SPOT signal, Boehringer light units (BLU); mean over the file's lines of this peptide"
1,GWVVYPPPPKPSYN [YML035C 223-236],453
2,HAEAFEDPSIPRIS [YGL195W 985-998],325
3,HATLYWAPVSPLKS [YLR305C 1420-1433],151
4,HAVLLNPPVAPTAE [YPL012W 184-197],228
5,HAWDMRSPHRPFYS [YDR128W 140-153],822
6,HEHNYAIPYTPATF [YBR238C 43-56],129
7,HEKLYHNPSLPAQS [YKL217W 53-66],78.1
8,HEYNLALPKFPILF [YMR088C 27-40],147
9,HFLAYTNPRAPGKL [YIL054W 29-42],112
10,HFLSLDPPIDPNNL [YMR075W 283-296],122
11,HFNDLQSPAQPQQS [YMR164C 264-277],92.5
12,HFYEYVYPSLPFIE [YAL051W 349-362],152
13,HLARYIFPPNPVFH [YBR007C 426-439],279
14,HLDSFSPPFSPSTT [YPL230W 298-311],121
15,HLFHLTTPQDPRLL [YKL191W 249-262],246
16,HLTDLSPPGTPPTM [YMR165C 272-285],261
17,HLVVWNPPILPQHE [YDR291W 495-508],118
18,HPEYLSLPFEPYSF [YLR054C 108-121],213
19,HPHPHPHPHTPTHT [YHR217C 23-36],238
20,HPIHLQPPVPPVYK [YOR032C 88-101],318
21,HPSGLNSPKLPPLP [YNL152W 370-383],457
